The conditions of data set [1]: background, literature or label; cited from earlier work.
The target of the next data set is plasma kallikrein (Homo sapiens, UniProt P03952). Description: Inhibition of enzyme activity of pre-activated plasma (compound added after DXS). It is filed as biochemical. The following applies: added 3.5 minutes post DXS; compound 300, 1000, 3000 nM; C1-INH 3000 nM. As to the method:
The ability of the compound to inhibit the enzyme activity of pre-activated plasma was assessed by addition of the compound after DXS stimulation. Aliquots of plasma (20 μL) were mixed with a 2.5 μL solution containing […] fluorogenic substrate (H-DPro-Phe-Arg-AFC) and a 2.5 μL solution of dextran sulphate (DXS; 100 μg/mL) which acted as an activator of the plasma kallikrein-kinin pathway. Enzyme activity was immediately measured by monitoring the accumulation of fluorescence liberated from the substrate by substrate cleavage over 16 minutes. At 3.5 minutes post DXS addition 5 μl of inhibitors or water control are were added into each well. The compound was tested at concentrations of 300, 1000 and 3000 nM. C1-INH at a concentration of 3000 nM and vehicle controls were also included.

For data set [2] the following is noted: phase 1 studies, repeat dosing; cited from earlier work.

Chain of plasma kallikrein (P03952 391-638 limits assumed): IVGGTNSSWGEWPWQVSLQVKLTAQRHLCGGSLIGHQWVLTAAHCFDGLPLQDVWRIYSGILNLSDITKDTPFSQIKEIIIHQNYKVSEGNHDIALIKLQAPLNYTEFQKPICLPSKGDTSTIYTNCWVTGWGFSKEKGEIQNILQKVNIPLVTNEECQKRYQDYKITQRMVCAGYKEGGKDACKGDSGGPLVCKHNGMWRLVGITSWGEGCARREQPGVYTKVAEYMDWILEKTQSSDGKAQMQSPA
Chain of plasma kallikrein (P03952 20-390 partner limits assumed): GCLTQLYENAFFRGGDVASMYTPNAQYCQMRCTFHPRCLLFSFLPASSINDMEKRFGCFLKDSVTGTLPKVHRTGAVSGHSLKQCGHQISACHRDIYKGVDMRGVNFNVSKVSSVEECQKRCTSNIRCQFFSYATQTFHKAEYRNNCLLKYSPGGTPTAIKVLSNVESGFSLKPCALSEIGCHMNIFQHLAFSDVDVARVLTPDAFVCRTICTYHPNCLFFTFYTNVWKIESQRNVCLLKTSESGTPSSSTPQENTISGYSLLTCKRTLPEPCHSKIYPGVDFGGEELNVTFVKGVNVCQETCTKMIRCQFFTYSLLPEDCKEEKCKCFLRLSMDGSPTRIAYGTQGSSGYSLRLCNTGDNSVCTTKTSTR

Turning to `N#Cc1cccc([C@@H](NCC2CC2)c2ccc(F)c(NC(=O)c3cc(C(F)(F)F)nn3-c3cccc(CN)c3)c2)c1` [Berotralstat], in data set [1], the reported adverse reactions result was “higher doses were associated with more gastrointestinal adverse effects”.

“C1-INH: C1 inhibitor (C1-INH, Sigma Cat #E0518), therapeutic benchmark for HAE [Compound C1-INH]”: the “inhibition of enzyme activity after activation of plasma” value with plasma kallikrein is reported as “slower action”.

Turning to Ecallantide, in data set [1], the reported adverse reactions result is recorded as “risk of anaphylactic reactions”.

As for `COCc1nn(Cc2ccc(Cn3cc(F)ccc3=O)cc2)cc1C(=O)NCc1nccc(OC)c1F` [KVD824, 1-({4-[(5-fluoro-2-oxopyridin-1-yl)methyl]phenyl}methyl)-N-[(3-fluoro-4-methoxypyridin-2-yl)methyl]-3-(methoxymethyl)pyrazole-4-carboxamide], the pharmacokinetic profile entry in data set [2] was “consistent pharmacokinetic profile over repeat dosing”.

B1: lanadelumab: recombinant fully human IgG1 kappa light chain monoclonal antibody, active substance of Takhzyro® (antibody, chains of the INN, looked up, V domains shown)
VH: EVQLLESGGGLVQPGGSLRLSCAASGFTFSHYIMMWVRQAPGKGLEWVSGIYSSGGITVYADSVKGRFTISRDNSKNTLYLQMNSLRAEDTAVYYCAYRRIGVPRRDEFDIWGQGTMVTVSS
VL: DIQMTQSPSTLSASVGDRVTITCRASQSISSWLAWYQQKPGKAPKLLIYKASTLESGVPSRFSGSGSGTEFTLTISSLQPDDFATYYCQQYNTYWTFGQGTKVEIK
Take B1: the reported adverse reactions entry in data set [1] was “hypersensitivity, injection site pain, injection site erythema, and injection site bruising”.
